Consider two sequences from patent US7507538B2, “Human papilloma virus immunoreactive peptides” (priority 2001, dated 2009).

“Also recorded” adds a separate entry of the source.

One assay deals with T1, HLA-A2 molecule (Homo sapiens, UniProt P04439, D140Y/D185E/D98H/E176V/E277Q/G131W/G231S/I119V/I121R/I166T/I218V/L300P/L318F/N151K/N90K/P208A/P217A/Q86G/Q94H/R138H/R169H/T345S).
T1 construct: endogenous in cells; host or cells: T2A2 cells
Put plainly: Binding of fluorescently labeled peptide to T2A2 cells. The note with it: for affinity for HLA-A2 relative to the other peptides tested / binding to the HLA-A2 molecules on the surface of T2A2 cells: FIG. 1; for binding to the HLA-A2 molecules on the surface of T2A2 cells: fluorescently labeled peptide.

For assay [1], the system named is autologous PBMC pulsed with HPV-16E6 or HPV-18E6 peptides. Kind of assay: 51Cr release lysis of peptide-pulsed autologous PBMC by lymphocytes stimulated in vitro with peptide. In kind it is cell-based, human. The following applies: lymphocytes of an HLA-A2 patient, peptide at 10 μm for 1-3 weeks, FIG. 2. As to the method: To determine if lymphocytes stimulated in vitro with either the HPV-18E6 peptide (SEQ ID NO. 1) or the HPV-16E6 peptide (SEQ ID NO. 10) would recognize and lyse peripheral blood mononuclear cells (PBMCs) pulsed with these peptides, the following experiment was performed. Lymphocytes isolated from a patient known to carry and express the HLA-A2 allele were stimulated in vitro (IVS) with either the HPV-18E6 peptide (SEQ ID NO. 1) or the HPV-16E6 peptide (SEQ ID NO. 10) at a 10 μm concentration for 1-3 weeks. Autologous PBMC target cells were radiolabeled with ^51Cr and pulsed with either the HPV-18E6 peptide (SEQ ID NO. 1) or the HPV-16E6 peptide (SEQ ID NO. 10). Each of the IVS lymphocyte populations were then mixed with each of the pulsed and labeled PBMC target cells and specific lysis was measured. Lymphocytes IVS with either the HPV-18E6 peptide (SEQ ID NO. 1) or the HPV-16E6 peptide (SEQ ID NO. 10) were able to lyse PBMCs which were pulsed with either the HPV-18E6 peptide (SEQ ID NO. 1) or the HPV-16E6 peptide (SEQ ID NO. 10) and had either the HPV-18E6 peptide (SEQ ID NO. 1) or the HPV-16E6 (SEQ ID NO. 10) peptide on their cell surface.
T cell cytotoxicity is measured by the standard ^51Cr-release assay. Briefly, target cells are radiolabeled with Na2 ^51CrO4. The patient's PBMC (which have been previously stimulated with an HPV peptide of Example 1 at 10 μm concentration for 1 to 3 weeks) are added to the labeled target cells in the presence or absence of the peptide. Cell lysis is determined by the specific release of ^51Cr (specific lysis). Target cells are autologous B-LCL or T2 cells pulsed with the peptide. If there is a detectable pre-immunization specific lysis, a 2.0 fold increase in the lytic units will be considered a positive response. If there is no detectable pre-immunization specific lysis, a post-immunization specific lysis of […] 10% above the controls will be considered a positive response.

Consider KLPDLCTEL, for which the “fold higher affinity for the HLA-A2 molecule than the homologous HPV-16E6 peptide KLPQLCTEL” value with HLA-A2 molecule (T2A2 cells) is given as “approximately 100 fold”. Also, the “affinity for HLA-A2 relative to the other peptides tested” value with HLA-A2 molecule (T2A2 cells) was “higher affinity than did either the FMP peptide or the homologous peptide from the HPV-16E6 protein”; with HLA-A2 molecule (T2A2 cells, listed as HPV-18E6 (13-21) peptide), “higher than the homologous HPV-16E6 peptide”. In addition, the “binding to the HLA-A2 molecules on the surface of T2A2 cells” value with HLA-A2 molecule is “bound”; with HLA-A2 molecule (listed as HPV-18E6 (13-21) peptide), “high affinity”; with HLA-A2 molecule (listed as HPV-18E6 peptide), “able to bind”. Moreover, the “specific lysis of autologous PBMC pulsed with either HPV-18E6 or HPV-16E6 peptide by lymphocytes stimulated in vitro with the peptide” value is “able to lyse; also recorded: able to elicit an immune response” in assay [1] (listed as HPV-18E6 peptide) and “specifically lyse” in assay [1] (listed as HPV-18E6 peptides).
“KLPQLCTEL [homologous peptide from the HPV-16E6 protein (amino acids 13-21), reference compound]”: the “specific lysis of autologous PBMC pulsed with either HPV-18E6 or HPV-16E6 peptide by lymphocytes stimulated in vitro with the peptide” value is “able to lyse” in assay [1] (listed as HPV-16E6 peptide) and “lyse” in assay [1] (listed as HPV-16E6 peptides).
